The record followed here is patent publication US20150344570A1 (published 2015).

B1: GpH7-B3 variant Q295_18N/GpL16-k0 (antibody, human IgG1, kappa)
heavy: not shown
light: DIVMTQSPLSLPVTPGEPASISCQASESLVHSNRNTYLHWYLQKPGQSPQLLIYKVSNRFSGVPDRFSGSGSGTDFTLKISRVEAEDVGVYYCSQNTHVPPTFGQGTKVEIERTVAAPSVFIFPPSDEQLKSGTASVVCLLNNFYPREAKVQWKVDNALQSGNSQESVTEQDSKDSTYSLSSTLTLSKADYEKHKVYACEVTHQGLSSPVTKSFNRGEC
notes: also called Ho Ab Q295_18N
B2: GpH7-B3 variant S239_18N/GpL16-k0 (antibody, human IgG1, kappa)
heavy: not shown
light: DIVMTQSPLSLPVTPGEPASISCQASESLVHSNRNTYLHWYLQKPGQSPQLLIYKVSNRFSGVPDRFSGSGSGTDFTLKISRVEAEDVGVYYCSQNTHVPPTFGQGTKVEIERTVAAPSVFIFPPSDEQLKSGTASVVCLLNNFYPREAKVQWKVDNALQSGNSQESVTEQDSKDSTYSLSSTLTLSKADYEKHKVYACEVTHQGLSSPVTKSFNRGEC
notes: also called Ho Ab S239_18N
B3: GpH7-B3 variant S267_08L/GpL16-k0 (antibody, human IgG1, kappa)
heavy: not shown
light: DIVMTQSPLSLPVTPGEPASISCQASESLVHSNRNTYLHWYLQKPGQSPQLLIYKVSNRFSGVPDRFSGSGSGTDFTLKISRVEAEDVGVYYCSQNTHVPPTFGQGTKVEIERTVAAPSVFIFPPSDEQLKSGTASVVCLLNNFYPREAKVQWKVDNALQSGNSQESVTEQDSKDSTYSLSSTLTLSKADYEKHKVYACEVTHQGLSSPVTKSFNRGEC
notes: also called Ho Ab S267_08L
B4: GpH7-B3 variant S298_04F/GpL16-k0 (antibody, human IgG1, kappa)
heavy: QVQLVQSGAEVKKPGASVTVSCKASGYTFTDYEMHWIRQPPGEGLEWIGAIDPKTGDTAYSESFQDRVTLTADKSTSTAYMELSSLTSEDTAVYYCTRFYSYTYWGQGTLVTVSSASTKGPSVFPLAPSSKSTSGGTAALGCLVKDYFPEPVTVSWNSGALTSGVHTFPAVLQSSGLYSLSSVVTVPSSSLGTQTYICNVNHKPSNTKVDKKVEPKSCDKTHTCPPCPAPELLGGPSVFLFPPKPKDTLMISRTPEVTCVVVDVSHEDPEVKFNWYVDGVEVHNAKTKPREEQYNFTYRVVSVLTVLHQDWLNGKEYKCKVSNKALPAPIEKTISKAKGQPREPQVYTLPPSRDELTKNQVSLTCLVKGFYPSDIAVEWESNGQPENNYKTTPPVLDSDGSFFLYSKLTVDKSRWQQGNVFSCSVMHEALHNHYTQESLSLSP
light: DIVMTQSPLSLPVTPGEPASISCQASESLVHSNRNTYLHWYLQKPGQSPQLLIYKVSNRFSGVPDRFSGSGSGTDFTLKISRVEAEDVGVYYCSQNTHVPPTFGQGTKVEIERTVAAPSVFIFPPSDEQLKSGTASVVCLLNNFYPREAKVQWKVDNALQSGNSQESVTEQDSKDSTYSLSSTLTLSKADYEKHKVYACEVTHQGLSSPVTKSFNRGEC
notes: also called Ho Ab S298_04F
B5: GpH7-B3 variant S267_09D/GpL16-k0 (antibody, human IgG1, kappa)
heavy: not shown
light: DIVMTQSPLSLPVTPGEPASISCQASESLVHSNRNTYLHWYLQKPGQSPQLLIYKVSNRFSGVPDRFSGSGSGTDFTLKISRVEAEDVGVYYCSQNTHVPPTFGQGTKVEIERTVAAPSVFIFPPSDEQLKSGTASVVCLLNNFYPREAKVQWKVDNALQSGNSQESVTEQDSKDSTYSLSSTLTLSKADYEKHKVYACEVTHQGLSSPVTKSFNRGEC
notes: also called Ho Ab S267_09D
B6: GpH7-B3 variant S267_03V/GpL16-k0 (antibody, human IgG1, kappa)
heavy: not shown
light: DIVMTQSPLSLPVTPGEPASISCQASESLVHSNRNTYLHWYLQKPGQSPQLLIYKVSNRFSGVPDRFSGSGSGTDFTLKISRVEAEDVGVYYCSQNTHVPPTFGQGTKVEIERTVAAPSVFIFPPSDEQLKSGTASVVCLLNNFYPREAKVQWKVDNALQSGNSQESVTEQDSKDSTYSLSSTLTLSKADYEKHKVYACEVTHQGLSSPVTKSFNRGEC
notes: also called Ho Ab S267_03V
B7: GpH7-B3 variant S267_16H/GpL16-k0 (antibody, human IgG1, kappa)
heavy: not shown
light: DIVMTQSPLSLPVTPGEPASISCQASESLVHSNRNTYLHWYLQKPGQSPQLLIYKVSNRFSGVPDRFSGSGSGTDFTLKISRVEAEDVGVYYCSQNTHVPPTFGQGTKVEIERTVAAPSVFIFPPSDEQLKSGTASVVCLLNNFYPREAKVQWKVDNALQSGNSQESVTEQDSKDSTYSLSSTLTLSKADYEKHKVYACEVTHQGLSSPVTKSFNRGEC
notes: also called Ho Ab S267_16H
B8: GpH7-B3 variant S298_07I/GpL16-k0 (antibody, human IgG1, kappa)
heavy: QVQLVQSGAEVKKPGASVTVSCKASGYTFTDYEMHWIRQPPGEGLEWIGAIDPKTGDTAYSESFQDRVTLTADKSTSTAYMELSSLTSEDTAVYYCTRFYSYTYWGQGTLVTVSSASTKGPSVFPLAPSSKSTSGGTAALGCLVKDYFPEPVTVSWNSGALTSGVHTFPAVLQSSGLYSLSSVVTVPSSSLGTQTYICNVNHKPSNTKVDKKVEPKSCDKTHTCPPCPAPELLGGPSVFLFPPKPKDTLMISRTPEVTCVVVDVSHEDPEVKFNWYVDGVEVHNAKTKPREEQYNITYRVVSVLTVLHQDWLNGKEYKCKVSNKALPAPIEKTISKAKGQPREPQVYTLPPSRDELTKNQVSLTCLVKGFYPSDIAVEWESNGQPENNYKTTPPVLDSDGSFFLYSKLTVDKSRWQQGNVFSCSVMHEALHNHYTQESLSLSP
light: DIVMTQSPLSLPVTPGEPASISCQASESLVHSNRNTYLHWYLQKPGQSPQLLIYKVSNRFSGVPDRFSGSGSGTDFTLKISRVEAEDVGVYYCSQNTHVPPTFGQGTKVEIERTVAAPSVFIFPPSDEQLKSGTASVVCLLNNFYPREAKVQWKVDNALQSGNSQESVTEQDSKDSTYSLSSTLTLSKADYEKHKVYACEVTHQGLSSPVTKSFNRGEC
notes: also called Ho Ab S298_07I
B9: GpH7-B3 variant S298_06M/GpL16-k0 (antibody, human IgG1, kappa)
heavy: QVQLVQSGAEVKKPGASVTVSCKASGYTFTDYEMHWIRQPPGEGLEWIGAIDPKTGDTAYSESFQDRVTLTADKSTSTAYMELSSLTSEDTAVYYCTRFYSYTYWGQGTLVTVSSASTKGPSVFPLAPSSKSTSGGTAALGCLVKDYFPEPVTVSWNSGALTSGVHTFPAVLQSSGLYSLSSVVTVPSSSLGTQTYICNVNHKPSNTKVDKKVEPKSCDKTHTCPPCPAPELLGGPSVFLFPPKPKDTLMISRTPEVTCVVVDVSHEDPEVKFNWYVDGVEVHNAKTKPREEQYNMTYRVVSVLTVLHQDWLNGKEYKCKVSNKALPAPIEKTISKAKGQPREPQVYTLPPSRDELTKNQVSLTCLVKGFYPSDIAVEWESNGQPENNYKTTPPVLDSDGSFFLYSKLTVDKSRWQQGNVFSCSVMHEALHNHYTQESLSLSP
light: DIVMTQSPLSLPVTPGEPASISCQASESLVHSNRNTYLHWYLQKPGQSPQLLIYKVSNRFSGVPDRFSGSGSGTDFTLKISRVEAEDVGVYYCSQNTHVPPTFGQGTKVEIERTVAAPSVFIFPPSDEQLKSGTASVVCLLNNFYPREAKVQWKVDNALQSGNSQESVTEQDSKDSTYSLSSTLTLSKADYEKHKVYACEVTHQGLSSPVTKSFNRGEC
notes: also called Ho Ab S298_06M
B10: GpH7-B3 variant S298_02A/GpL16-k0 (antibody, human IgG1, kappa)
heavy: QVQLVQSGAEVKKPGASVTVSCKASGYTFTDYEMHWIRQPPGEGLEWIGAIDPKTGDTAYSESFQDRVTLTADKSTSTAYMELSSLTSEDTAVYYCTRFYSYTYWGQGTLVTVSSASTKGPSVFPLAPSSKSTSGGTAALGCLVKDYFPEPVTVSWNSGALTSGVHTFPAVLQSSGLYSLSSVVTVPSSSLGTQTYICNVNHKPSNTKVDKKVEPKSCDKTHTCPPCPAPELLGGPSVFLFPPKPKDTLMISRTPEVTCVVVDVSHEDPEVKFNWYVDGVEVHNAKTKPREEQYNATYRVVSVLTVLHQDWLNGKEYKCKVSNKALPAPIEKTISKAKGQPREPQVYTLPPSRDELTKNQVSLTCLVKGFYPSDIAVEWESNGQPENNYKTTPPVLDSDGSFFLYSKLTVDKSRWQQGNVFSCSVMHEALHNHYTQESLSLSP
light: DIVMTQSPLSLPVTPGEPASISCQASESLVHSNRNTYLHWYLQKPGQSPQLLIYKVSNRFSGVPDRFSGSGSGTDFTLKISRVEAEDVGVYYCSQNTHVPPTFGQGTKVEIERTVAAPSVFIFPPSDEQLKSGTASVVCLLNNFYPREAKVQWKVDNALQSGNSQESVTEQDSKDSTYSLSSTLTLSKADYEKHKVYACEVTHQGLSSPVTKSFNRGEC
notes: also called Ho Ab S298_02A
B11: GpH7-B3 variant S298_08L/GpL16-k0 (antibody, human IgG1, kappa)
heavy: not shown
light: DIVMTQSPLSLPVTPGEPASISCQASESLVHSNRNTYLHWYLQKPGQSPQLLIYKVSNRFSGVPDRFSGSGSGTDFTLKISRVEAEDVGVYYCSQNTHVPPTFGQGTKVEIERTVAAPSVFIFPPSDEQLKSGTASVVCLLNNFYPREAKVQWKVDNALQSGNSQESVTEQDSKDSTYSLSSTLTLSKADYEKHKVYACEVTHQGLSSPVTKSFNRGEC
notes: also called Ho Ab S298_08L
B12: GpH7-B3 variant S298_12R/GpL16-k0 (antibody, human IgG1, kappa)
heavy: not shown
light: DIVMTQSPLSLPVTPGEPASISCQASESLVHSNRNTYLHWYLQKPGQSPQLLIYKVSNRFSGVPDRFSGSGSGTDFTLKISRVEAEDVGVYYCSQNTHVPPTFGQGTKVEIERTVAAPSVFIFPPSDEQLKSGTASVVCLLNNFYPREAKVQWKVDNALQSGNSQESVTEQDSKDSTYSLSSTLTLSKADYEKHKVYACEVTHQGLSSPVTKSFNRGEC
notes: also called Ho Ab S298_12R
B13: GpH7-B3 variant S267_01G/GpL16-k0 (antibody, human IgG1, kappa)
heavy: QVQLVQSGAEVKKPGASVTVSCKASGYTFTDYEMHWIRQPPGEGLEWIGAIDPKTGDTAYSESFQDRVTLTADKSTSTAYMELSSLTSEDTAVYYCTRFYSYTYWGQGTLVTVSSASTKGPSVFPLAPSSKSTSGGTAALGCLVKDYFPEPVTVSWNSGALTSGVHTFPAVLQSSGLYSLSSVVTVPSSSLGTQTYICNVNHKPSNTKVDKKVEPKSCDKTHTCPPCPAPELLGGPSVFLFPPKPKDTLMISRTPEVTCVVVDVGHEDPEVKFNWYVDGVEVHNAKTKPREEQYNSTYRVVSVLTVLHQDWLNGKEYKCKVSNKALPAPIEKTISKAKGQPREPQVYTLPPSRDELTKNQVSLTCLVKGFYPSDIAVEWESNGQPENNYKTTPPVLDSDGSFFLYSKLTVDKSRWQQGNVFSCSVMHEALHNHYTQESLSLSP
light: DIVMTQSPLSLPVTPGEPASISCQASESLVHSNRNTYLHWYLQKPGQSPQLLIYKVSNRFSGVPDRFSGSGSGTDFTLKISRVEAEDVGVYYCSQNTHVPPTFGQGTKVEIERTVAAPSVFIFPPSDEQLKSGTASVVCLLNNFYPREAKVQWKVDNALQSGNSQESVTEQDSKDSTYSLSSTLTLSKADYEKHKVYACEVTHQGLSSPVTKSFNRGEC
notes: also called Ho Ab S267_01G
B14: GpH7-B3 variant S298_10E/GpL16-k0 (antibody, human IgG1, kappa)
heavy: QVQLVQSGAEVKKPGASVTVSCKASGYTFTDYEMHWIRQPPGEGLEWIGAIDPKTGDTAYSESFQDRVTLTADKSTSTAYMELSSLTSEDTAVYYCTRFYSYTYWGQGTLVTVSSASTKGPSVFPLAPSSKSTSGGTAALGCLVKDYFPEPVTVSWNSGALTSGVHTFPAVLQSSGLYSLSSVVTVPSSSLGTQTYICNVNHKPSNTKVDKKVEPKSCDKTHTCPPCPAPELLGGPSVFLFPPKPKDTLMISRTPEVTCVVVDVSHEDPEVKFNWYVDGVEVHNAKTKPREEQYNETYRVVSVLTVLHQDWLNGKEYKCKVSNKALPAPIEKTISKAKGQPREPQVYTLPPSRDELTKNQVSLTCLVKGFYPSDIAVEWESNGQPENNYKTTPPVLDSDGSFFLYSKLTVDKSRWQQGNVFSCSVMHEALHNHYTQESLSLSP
light: DIVMTQSPLSLPVTPGEPASISCQASESLVHSNRNTYLHWYLQKPGQSPQLLIYKVSNRFSGVPDRFSGSGSGTDFTLKISRVEAEDVGVYYCSQNTHVPPTFGQGTKVEIERTVAAPSVFIFPPSDEQLKSGTASVVCLLNNFYPREAKVQWKVDNALQSGNSQESVTEQDSKDSTYSLSSTLTLSKADYEKHKVYACEVTHQGLSSPVTKSFNRGEC
notes: also called Ho Ab S298_10E
B15: GpH7-B3 variant S267_02A/GpL16-k0 (antibody, human IgG1, kappa)
heavy: not shown
light: DIVMTQSPLSLPVTPGEPASISCQASESLVHSNRNTYLHWYLQKPGQSPQLLIYKVSNRFSGVPDRFSGSGSGTDFTLKISRVEAEDVGVYYCSQNTHVPPTFGQGTKVEIERTVAAPSVFIFPPSDEQLKSGTASVVCLLNNFYPREAKVQWKVDNALQSGNSQESVTEQDSKDSTYSLSSTLTLSKADYEKHKVYACEVTHQGLSSPVTKSFNRGEC
notes: also called Ho Ab S267_02A
B16: GpH7-B3 variant S239_14T/GpL16-k0 (antibody, human IgG1, kappa)
heavy: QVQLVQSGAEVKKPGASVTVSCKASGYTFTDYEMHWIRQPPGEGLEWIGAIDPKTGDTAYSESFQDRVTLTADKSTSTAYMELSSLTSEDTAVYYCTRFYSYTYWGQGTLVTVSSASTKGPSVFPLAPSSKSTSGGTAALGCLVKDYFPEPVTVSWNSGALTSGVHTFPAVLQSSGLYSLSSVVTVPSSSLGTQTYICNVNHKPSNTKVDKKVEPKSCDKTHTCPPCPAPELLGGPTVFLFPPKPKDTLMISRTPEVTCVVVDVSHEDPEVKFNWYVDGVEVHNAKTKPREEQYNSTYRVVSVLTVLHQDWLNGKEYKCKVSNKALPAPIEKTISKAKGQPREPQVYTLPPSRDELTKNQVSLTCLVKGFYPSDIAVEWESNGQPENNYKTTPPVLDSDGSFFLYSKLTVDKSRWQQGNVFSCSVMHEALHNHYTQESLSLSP
light: DIVMTQSPLSLPVTPGEPASISCQASESLVHSNRNTYLHWYLQKPGQSPQLLIYKVSNRFSGVPDRFSGSGSGTDFTLKISRVEAEDVGVYYCSQNTHVPPTFGQGTKVEIERTVAAPSVFIFPPSDEQLKSGTASVVCLLNNFYPREAKVQWKVDNALQSGNSQESVTEQDSKDSTYSLSSTLTLSKADYEKHKVYACEVTHQGLSSPVTKSFNRGEC
notes: also called Ho Ab S239_14T
B17: GpH7-B3 variant S239_09D/GpL16-k0 (antibody, human IgG1, kappa)
heavy: not shown
light: DIVMTQSPLSLPVTPGEPASISCQASESLVHSNRNTYLHWYLQKPGQSPQLLIYKVSNRFSGVPDRFSGSGSGTDFTLKISRVEAEDVGVYYCSQNTHVPPTFGQGTKVEIERTVAAPSVFIFPPSDEQLKSGTASVVCLLNNFYPREAKVQWKVDNALQSGNSQESVTEQDSKDSTYSLSSTLTLSKADYEKHKVYACEVTHQGLSSPVTKSFNRGEC
notes: also called Ho Ab S239_09D; GpH7-B3-06-09D/GpL16-k0
B18: GpH7-B3 variant S298_01G/GpL16-k0 (antibody, human IgG1, kappa)
heavy: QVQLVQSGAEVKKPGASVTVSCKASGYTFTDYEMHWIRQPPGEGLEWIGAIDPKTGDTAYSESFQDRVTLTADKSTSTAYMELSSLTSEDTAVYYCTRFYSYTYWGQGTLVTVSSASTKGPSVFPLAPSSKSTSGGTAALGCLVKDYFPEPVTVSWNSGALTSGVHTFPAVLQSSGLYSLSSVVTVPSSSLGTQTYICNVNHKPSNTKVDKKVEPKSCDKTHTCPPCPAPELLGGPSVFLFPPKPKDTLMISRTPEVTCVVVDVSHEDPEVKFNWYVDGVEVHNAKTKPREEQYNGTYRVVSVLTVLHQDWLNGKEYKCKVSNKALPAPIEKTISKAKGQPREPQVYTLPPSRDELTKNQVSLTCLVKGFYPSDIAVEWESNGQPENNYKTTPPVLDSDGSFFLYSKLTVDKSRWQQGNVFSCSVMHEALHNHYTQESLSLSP
light: DIVMTQSPLSLPVTPGEPASISCQASESLVHSNRNTYLHWYLQKPGQSPQLLIYKVSNRFSGVPDRFSGSGSGTDFTLKISRVEAEDVGVYYCSQNTHVPPTFGQGTKVEIERTVAAPSVFIFPPSDEQLKSGTASVVCLLNNFYPREAKVQWKVDNALQSGNSQESVTEQDSKDSTYSLSSTLTLSKADYEKHKVYACEVTHQGLSSPVTKSFNRGEC
notes: also called Ho Ab S298_01G
B19: GpH7-B3 variant S239_19Q/GpL16-k0 (antibody, human IgG1, kappa)
heavy: not shown
light: DIVMTQSPLSLPVTPGEPASISCQASESLVHSNRNTYLHWYLQKPGQSPQLLIYKVSNRFSGVPDRFSGSGSGTDFTLKISRVEAEDVGVYYCSQNTHVPPTFGQGTKVEIERTVAAPSVFIFPPSDEQLKSGTASVVCLLNNFYPREAKVQWKVDNALQSGNSQESVTEQDSKDSTYSLSSTLTLSKADYEKHKVYACEVTHQGLSSPVTKSFNRGEC
notes: also called Ho Ab S239_19Q
B20: GpH7-B3 variant S239_01G/GpL16-k0 (antibody, human IgG1, kappa)
heavy: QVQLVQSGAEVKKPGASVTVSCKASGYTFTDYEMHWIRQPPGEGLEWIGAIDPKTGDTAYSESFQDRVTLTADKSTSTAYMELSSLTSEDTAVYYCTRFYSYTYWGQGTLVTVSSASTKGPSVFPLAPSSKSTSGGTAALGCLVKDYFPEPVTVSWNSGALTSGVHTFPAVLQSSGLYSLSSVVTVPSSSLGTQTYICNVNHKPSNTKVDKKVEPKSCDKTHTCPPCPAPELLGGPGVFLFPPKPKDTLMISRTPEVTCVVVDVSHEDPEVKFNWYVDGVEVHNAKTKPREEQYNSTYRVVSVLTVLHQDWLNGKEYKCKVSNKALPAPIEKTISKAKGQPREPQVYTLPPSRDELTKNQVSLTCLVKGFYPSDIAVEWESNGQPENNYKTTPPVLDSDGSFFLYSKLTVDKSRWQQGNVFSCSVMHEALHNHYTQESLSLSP
light: DIVMTQSPLSLPVTPGEPASISCQASESLVHSNRNTYLHWYLQKPGQSPQLLIYKVSNRFSGVPDRFSGSGSGTDFTLKISRVEAEDVGVYYCSQNTHVPPTFGQGTKVEIERTVAAPSVFIFPPSDEQLKSGTASVVCLLNNFYPREAKVQWKVDNALQSGNSQESVTEQDSKDSTYSLSSTLTLSKADYEKHKVYACEVTHQGLSSPVTKSFNRGEC
notes: also called Ho Ab S239_01G
B21: GpH7-B3 variant S298_03V/GpL16-k0 (antibody, human IgG1, kappa)
heavy: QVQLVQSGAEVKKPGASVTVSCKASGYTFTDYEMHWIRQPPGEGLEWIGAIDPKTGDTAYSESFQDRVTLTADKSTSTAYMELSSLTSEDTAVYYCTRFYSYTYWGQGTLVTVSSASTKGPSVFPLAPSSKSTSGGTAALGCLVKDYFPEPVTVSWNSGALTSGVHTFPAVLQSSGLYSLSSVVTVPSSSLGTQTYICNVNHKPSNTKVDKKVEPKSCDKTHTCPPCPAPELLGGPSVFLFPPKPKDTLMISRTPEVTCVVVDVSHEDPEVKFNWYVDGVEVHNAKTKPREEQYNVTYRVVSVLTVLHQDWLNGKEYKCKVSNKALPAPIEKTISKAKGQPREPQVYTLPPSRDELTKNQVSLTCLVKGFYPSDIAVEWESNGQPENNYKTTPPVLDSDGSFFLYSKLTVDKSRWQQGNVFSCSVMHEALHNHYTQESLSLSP
light: DIVMTQSPLSLPVTPGEPASISCQASESLVHSNRNTYLHWYLQKPGQSPQLLIYKVSNRFSGVPDRFSGSGSGTDFTLKISRVEAEDVGVYYCSQNTHVPPTFGQGTKVEIERTVAAPSVFIFPPSDEQLKSGTASVVCLLNNFYPREAKVQWKVDNALQSGNSQESVTEQDSKDSTYSLSSTLTLSKADYEKHKVYACEVTHQGLSSPVTKSFNRGEC
notes: also called Ho Ab S298_03V

The assay deals with T1, FcγRIa (human, UniProt P12314 16-292).
T1 construct: extracellular domain; Soluble extracellular domain expressed in FreeStyle293 cells, used as analyte in Biacore; also called FcgRI; 1a; not shown: His tag attached to the C terminus
T1 sequence (P12314 16-292): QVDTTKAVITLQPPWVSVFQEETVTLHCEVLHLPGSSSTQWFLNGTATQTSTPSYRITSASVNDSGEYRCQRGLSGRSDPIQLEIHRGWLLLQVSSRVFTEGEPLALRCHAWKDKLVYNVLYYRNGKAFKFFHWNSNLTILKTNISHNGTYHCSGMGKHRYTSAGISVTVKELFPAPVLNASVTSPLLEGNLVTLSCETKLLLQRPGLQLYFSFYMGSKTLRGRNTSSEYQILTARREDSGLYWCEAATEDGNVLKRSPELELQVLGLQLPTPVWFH
Briefly: SPR (Biacore); Ho Ab vs HoCon Ab GpH7-B3/GpL16-k0. How it is done:
Analysis of interaction between objective antibody and the FcγR was carried out using Biacore T100 (GE Healthcare). HBS-EP+ (GE Healthcare) was used as the running buffer, and the measurement temperature was set to 25° C. Chips produced by immobilizing the antigen peptide by the amine coupling method to a Series S Sencor Chip CM5 (GE Healthcare), or alternatively, chips produced by allowing preliminarily biotinylated antigen peptides to interact with and immobilize onto a Series S Sensor Chip SA (certified) (GE Healthcare) were used. Antibodies of interest were captured onto an antigen peptide-immobilized chip, and allowed to interact to each FcγR diluted with running buffer. To regenerate and repeatedly use the chip, the antibodies captured on the chip were washed off by reacting 10 mM glycine-HCl, pH 1.5.
For the molecule B1, the Ho/Con_1a is 101 relative binding, control = 100.
For the molecule B2, the Ho/Con_1a was 97.9 relative binding, control = 100.
Then B3, with 99.9 relative binding, control = 100; and B4, with 107 relative binding, control = 100.
As for B5, the Ho/Con_1a was 106 relative binding, control = 100.
Take B6: the Ho/Con_1a is 102 relative binding, control = 100.
Consider B7, for which the Ho/Con_1a was 98.2 relative binding, control = 100.
With B8, the Ho/Con_1a is 103 relative binding, control = 100.
Then B9, with 106 relative binding, control = 100.
With B10 the figure was 106 relative binding, control = 100; with B11, 104 relative binding, control = 100.
With B12 the figure was 94.5 relative binding, control = 100; with B13, 102 relative binding, control = 100.
As to B14, the Ho/Con_1a is 106 relative binding, control = 100.
With B15, the Ho/Con_1a was 108 relative binding, control = 100.
Then B16, with 101 relative binding, control = 100.
Then B17, with 101 relative binding, control = 100; and B18, with 103 relative binding, control = 100; and B19, with 93.4 relative binding, control = 100.
With B20, the Ho/Con_1a was 101 relative binding, control = 100.
On to B21, for which the Ho/Con_1a was 106 relative binding, control = 100.
